According to patent US20050182242A1, “Global analysis of protein activities using proteome chips” (priority 2001, published 2005):

Tests used:
Conditions in all cases: liposome binding signal on yeast proteome chip, Cy3-streptavidin detection
PI(3)P liposomes = assay: Yeast proteome chip probed with PI(3)P liposomes
Source text: To identify PI-binding proteins in yeast, liposomes were used as probes because the liposome provides the most relevant physiological condition to assay the interactors. Six types of liposomes were used. Each contains phosphatidylcholine (“PC”) with 1% (w/w) N-(biotinoyl)-1,2-dihexadecanoyl-sn-glycero-3-phosphoethanolamine, triethylammonium salt (biotin DHPE). The biotinylated lipid serves as a label that can be detected by Cy3-streptavidin (21). In addition to PC, the five other liposomes contain either 5% (w/w) PI(3)P, PI(4)P, PI(3,4)P2, PI(4,5)P2, or PI(3,4,5)P3 (FIG. 3A).
The protein-liposome interaction was assayed as follows. Appropriate amounts of each lipid in chloroform were mixed and dried under nitrogen. The lipid mixture was resuspended in TBS buffer by vortexing. The liposomes were created by sonication. Blocked proteome chips were washed three to five times in PBS buffer, and the extra liquid on the glass surface was removed by tapping the slides vertically on a KIMWIPE™. 200 μl of liposome solution was added to the proteome chip and immediately covered by a hydrophobic plastic cover slip (GRACE BIO-LAB™, USA). After trapped air bubbles were removed, the chip was incubated in a humidity chamber at RT for one hour. To remove the cover slip, the chip was immersed into large volume of PBS buffer (50 ml), so that the slip would float away. The chip was then moved to a second PBS bath (>50 ml) and washed 3×5 min with shaking at RT. After removing extra liquid on the surface of the chip, about 100 μl of Cy3 or Cy5 conjugated streptavidin (PIERCE™, USA; 1:2000 to 1:4000 dilution) was added to the surface and covered by a hydrophobic plastic cover slip (GRACE BIO-LABS™, USA). The chip was incubated for greater than 30 min in the dark at RT. The chip was then washed as described above. To completely remove the liquid on the chip, the chip was spun to dryness at 1500-2000 rpm for 5-10 min at RT.
• 1. S. Fields, Y. Kohara, D. J. Lockhart, Proc. Natl. Acad. Sci. 96, 8825 (1999); A. Goffeau et al., Science 274, 563 (1996). • 2 P. Ross-Macdonald et al., Nature 402, 413 (1999); J. L., DeRisi, V. R. Iyer, P. O. Brown, Science 278, 680 (1997); E. A. Winzeler et al., Science 285, 901 (1999). P. Uetz et al., Nature 403, 623 (2000); T. Ito et al., Proc. Natl. Acad. Sci. USA. 97, 1143 (2000) • 3 H. Zhu, M. Snyder, Curr. Opin. Chem. Biol. 5, 40 (2001). • 4 M. R. Martzen et al., Science 286, 1153 (1999). • 5 H. Zhu et al., Nat. Genet. 26, 283 (2000). • 6 G. MacBeath, S. L. Schreiber, Science 289, 1760 (2000). • 7 A. Caveman, J. Cell Sci. 113, 3543 (2000). • 8 P. Arenkov et al., Anal. Biochem 278, 123 (2000). • 9 D. A. Mitchell, T. K. Marshall, R. J. Deschenes, Yeast 9, 715 (1993). The expression vector pEGH was created by inserting an RGS-HisX6 epitope tag between the GST gene and the polycloning site of pEG(KG). The yeast ORFs were cloned using the strategy described previously (5), except every step was done in a 96-well format. Plasmid DNAs confirmed by DNA sequencing were reintroduced into both yeast (Y258) and E. coli (DH5a). […] 0.1 mM calcium was present in buffers in all subsequent steps. The chip was washed three times with PBS at RT. Cy3-conjugated streptavidin (Jackson IR, USA) (1:5000 dilution) was added to the chip and incubated for 30 min at RT. After extensive washing, the chip was spun dry and scanned using a microarray scanner; the data was subsequently acquired with the GENEPIX™ array densitometry software (Axon, USA). • 12 S. S. Hook, A. R. Means, Annu. Rev. Pharmacol. Toxicol.41, 471 (2001). • 13 M. S. Cyert, R. Kunisawa, D. Kaim, J. Thorner, Proc. Natl. Acad. Sci. USA 88, 7376 (1991). • 14 D. A. Stirling, K. A. Welch, M. J. Stark, EMBO J. 13, 4329 (1994). • 15 F. Bohl, Kruse, EMBO J. 19, 5514 (2000); E. Bertrand et al., Mol. Cell 2, 437 (1998). • 16 D. C. Winter, E. Y. Choe, R. Li, Proc. Nat. Acad Sci. USA 96, 7288 (1999). • 17 C.

PI(3,4,5)P3 liposomes = assay: Yeast proteome chip probed with PI(3,4,5)P3 liposomes
PI(3,4)P2 liposomes = assay: Yeast proteome chip probed with PI(3,4)P2 liposomes
PI(4)P liposomes = assay: Yeast proteome chip probed with PI(4)P liposomes
PI(4,5)P2 liposomes = assay: Yeast proteome chip probed with PI(4,5)P2 liposomes
[1] = test system: phosphatidylcholine (PC) liposomes; assay: Yeast proteome chip probed with PC liposomes
In short: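 Yeast proteome chips incubated 1 h at RT with sonicated liposomes of PC containing 1% (w/w) biotin-DHPE, plus 5% (w/w) of the indicated phosphoinositide where applicable. After PBS washes, bound liposomes detected with Cy3- or Cy5-streptavidin (>30 min, RT, dark) and fluorescence scanned.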

B1: MAG1: yeast GST-HisX6 fusion protein on proteome chip (protein, UniProt P22134 1-296, looked up)
DNA-3-methyladenine …: MKLKREYDELIKADAVKEIAKELGSRPLEVALPEKYIARHEEKFNMACEHILEKDPSLFPILKNNEFTLYLKETQVPNTLEDYFIRLASTILSQQISGQAAESIKARVVSLYGGAFPDYKILFEDFKDPAKCAEIAKCGLSKRKMIYLESLAVYFTEKYKDIEKLFGQKDNDEEVIESLVTNVKGIGPWSAKMFLISGLKRMDVFAPEDLGIARGFSKYLSDKPELEKELMRERKVVKKSKIKHKKYNWKIYDDDIMEKCSETFSPYRSVFMFILWRLASTNTDAMMKAEENFVKS
modifications: GST-His6 tag
notes: yeast GST-HisX6 fusion protein on proteome chip
- PI(3)P (PI(3)P liposomes): 6.50
- PI(3, 4, 5)P3 (PI(3,4,5)P3 liposomes): 29.02
- PI(3, 4)P2 (PI(3,4)P2 liposomes): −2.20
- PI(4)P (PI(4)P liposomes): 21.34
- PI(4, 5)P2 (PI(4,5)P2 liposomes): 5.23
- PC [1]: 10.86

B2: URA8: yeast GST-HisX6 fusion protein on proteome chip (protein, UniProt P38627 1-578, looked up)
CTP synthase 2: MKYVVVSGGVISGIGKGVLASSTGMLLKTLGLKVTSIKIDPYMNIDAGTMSPLEHGECFVLDDGGETDLDLGNYERYLGITLSRDHNITTGKIYSHVISRERRGDYLGKTVQIVPHLTNAIQDWIQRVSKIPVDDTGLEPDVCIIELGGTVGDIESAPFVEALRQFQFEVGRENFALIHVSLVPVIHGEQKTKPTQAAIKDLRSLGLIPDMIACRCSEELNRSTIDKIAMFCHVGPEQVVNVHDVNSTYHVPLLLLKQHMIDYLHSRLKLGEVPLTLEDKERGSQLLTNWENMTKNLDDSDDVVKIALVGKYTNLKDSYLSVTKSLEHASMKCRRQLEILWVEASNLEPETQEVDKNKFHDSWNKLSSADGILVPGGFGTRGIEGMILAAKWARESGVPFLGVCLGLQVAAIEFARNVIGRPNSSSTEFLDETLLAPEDQVVIYMPEIDKEHMGGTMRLGLRPTIFQPNSEWSNIRKLYGEVNEVHERHRHRYEINPKIVNDMESRGFIFVGKDETGQRCEIFELKGHPYYVGTQYHPEYTSKVLEPSRPFWGLVAAASGTLGEVIKDINLSEGNENE
modifications: GST-His6 tag
notes: as for B1
- PI(3)P (PI(3)P liposomes): 11.50
- PI(3, 4, 5)P3 (PI(3,4,5)P3 liposomes): 42.86
- PI(3, 4)P2 (PI(3,4)P2 liposomes): −2.83
- PI(4)P (PI(4)P liposomes): 34.40
- PI(4, 5)P2 (PI(4,5)P2 liposomes): 23.95
- PC [1]: 20.25

B3: DTR1: yeast GST-HisX6 fusion protein on proteome chip (protein, UniProt P38125 1-572, looked up)
Dityrosine transporter 1: MGSEPFQKKNLGLQINSQESGTTRSTFHSLEDLGDDVINESWDQVNQKRANIDHDVFHEHPDSSPSLSAQKAKTKEEEVAVKSSNSQSRDPSPDTQAHIPYTYFSKDQRLIIFGIIIFIGFLGPMSGNIYIPALPLLQREYDVSATTINATVSVFMAVFSVGPLFWGALADFGGRKFLYMVSLSLMLIVNILLAAVPVNIAALFVLRIFQAFASSSVISLGAGTVTDVVPPKHRGKAIAYFMMGPNMGPIIAPIVAGLILMKGNYWRWLFGFTSIMTGIALILVTALLPETLRCIVGNGDPKWGDKKDERENNESPFFEGNKISHRRLFPDIGIRKPVNNDAFFQENFPKPPKAGLTLYWKMIKCPPIIITSVSTALLFSSYYAFSVTFSYYLEHDYRFTMLEIGAAYVCPGVAMLLGSQSGGHLSDYLRSRWIKSHPKKKFPAEFRLLLNLIGILLTICGTIGYGWAIFFHYHFVVLLVFSALTAFGMTWCSNTSMTYLTELFPKRAAGTVAVSSFFRNVGAAISSAIILQLCNAMGIGWCFTGLGLCSSISLIGILYLLIFQRKYTAKEF
modifications: GST-His6 tag
notes: as for B1
- PI(3)P (PI(3)P liposomes): 23.00
- PI(3, 4, 5)P3 (PI(3,4,5)P3 liposomes): 13.72
- PI(3, 4)P2 (PI(3,4)P2 liposomes): 2.83
- PI(4)P (PI(4)P liposomes): −4.79
- PI(4, 5)P2 (PI(4,5)P2 liposomes): 3.05
- PC [1]: 24.07

B4: YLR020C: yeast GST-HisX6 fusion protein on proteome chip (protein, UniProt Q07950 1-538, looked up)
Sterol esterase 2: MVNKVVDEVQRLVSAIILTSFMTGLFILSLWKNYVTVHFQHKNDPRDTRSSRTKIQPNDKKKKRPARHSRPLSISSTTPLDLQRDQENNIEYDRTVTSKLSMTSNASLSENGDGNANIKMETNVNQAPYAAENPFQNIALAEDTKLVPDLKYYYKEYGIDIEEFEVETDDGFIIDLWHFKSRLNDGVEEVKREPILLLHGLLQSCGAFASSGRKSLAYFLYESGFDVWLGNNRCGLNAKWNMKKLGNDHSKKWDWDMHQMVQYDLKALINYVLDSTGYAKLSLVAHSQGTTQGFMGLVNGEKLYASDFKLVDKLENFVALAPAVYPGPLLDEKAFVRLMAKGIDSPWYFGRRSFIPLMMTMRKLMVGTKIFSFLSYIMFNYLFDWNDVLWDRVLRDRNFLFSPVHISVKLMQWWLSPLPNKLSFKKGAEKIFPDKKTWFPIAKNDDDSGNNLDNNKLHLNPKRQNSEEFPHIIMFIPKQDRLVDGERLINHFINHEANAVYKIWYIDEYSHLDVLWAHDVIDRIGKPMIENLRFPNAR
modifications: GST-His6 tag
notes: as for B1
- PI(3)P (PI(3)P liposomes): 3.75
- PI(3, 4, 5)P3 (PI(3,4,5)P3 liposomes): 1.24
- PI(3, 4)P2 (PI(3,4)P2 liposomes): 2.67
- PI(4)P (PI(4)P liposomes): −5.66
- PI(4, 5)P2 (PI(4,5)P2 liposomes): 15.68
- PC [1]: 7.34

B5: KSS1: yeast GST-HisX6 fusion protein on proteome chip (protein, UniProt P14681 1-368, looked up)
Mitogen-activated protein …: MARTITFDIPSQYKLVDLIGEGAYGTVCSAIHKPSGIKVAIKKIQPFSKKLFVTRTIREIKLLRYFHEHENIISILDKVRPVSIDKLNAVYLVEELMETDLQKVINNQNSGFSTLSDDHVQYFTYQILRALKSIHSAQVIHRDIKPSNLLLNSNCDLKVCDFGLARCLASSSDSRETLVGFMTEYVATRWYRAPEIMLTFQEYTTAMDIWSCGCILAEMVSGKPLFPGRDYHHQLWLILEVLGTPSFEDFNQIKSKRAKEYIANLPMRPPLPWETVWSKTDLNPDMIDLLDKMLQFNPDKRISAAEALRHPYLAMYHDPSDEPEYPPLNLDDEFWKLDNKIMRPEEEEEVPIEMLKDMLYDELMKTME
modifications: GST-His6 tag
notes: as for B1
- PI(3)P (PI(3)P liposomes): −11.50
- PI(3, 4, 5)P3 (PI(3,4,5)P3 liposomes): 0.23
- PI(3, 4)P2 (PI(3,4)P2 liposomes): 87.91
- PI(4)P (PI(4)P liposomes): 10.45
- PI(4, 5)P2 (PI(4,5)P2 liposomes): −2.61
- PC [1]: 16.43

B6: ARG1: yeast GST-HisX6 fusion protein on proteome chip (protein, UniProt P22768 1-420, looked up)
Argininosuccinate synthase: MSKGKVCLAYSGGLDTSVILAWLLDQGYEVVAFMANVGQEEDFDAAKEKALKIGACKFVCVDCREDFVKDILFPAVQVNAVYEDVYLLGTSLARPVIAKAQIDVAKQEGCFAVSHGCTGKGNDQIRFELSFYALKPDVKCITPWRMPEFFERFAGRKDLLDYAAQKGIPVAQTKAKPWSTDENQAHISYEAGILEDPDTTPPKDMWKLIVDPMDAPDQPQDLTIDFERGLPVKLTYTDNKTSKEVSVTKPLDVFLAASNLARANGVGRIDIVEDRYINLKSRGCYEQAPLTVLRKAHVDLEGLTLDKEVRQLRDSFVTPNYSRLIYNGSYFTPECEYIRSMIQPSQNSVNGTVRVRLYKGNVIILGRSTKTEKLYDPTESSMDELTGFLPTDTTGFIAIQAIRIKKYGESKKTKGEELTL
modifications: GST-His6 tag
notes: as for B1
- PI(3)P (PI(3)P liposomes): 213.00
- PI(3, 4, 5)P3 (PI(3,4,5)P3 liposomes): −6.08
- PI(3, 4)P2 (PI(3,4)P2 liposomes): 1.73
- PI(4)P (PI(4)P liposomes): −6.31
- PI(4, 5)P2 (PI(4,5)P2 liposomes): 3.48
- PC [1]: 23.77
